Measurements from patent US20260250366A1 (RIN INSTITUTE, published 2026).

Assays:
[1] = molecular target: AMU1114 (Δ22-28, F157E) mutant (Homo sapiens (Human), UniProt P0DOX7 1-214); assay: ELISA, receptor immobilized, detection with HRP anti-human Kappa chain antibody; compared with PBS
Method: (§1) The concentration of each of the human and mouse urokinase receptors was adjusted with PBS to 1 μg/mL. The resultant solution was dispensed in the wells of a 96-well plate in a volume of 50 μL/well, allowed to stand still at room temperature for 90 minutes to immobilize the receptor. To the plate having the receptor immobilized thereon, TBS-T containing 1% BSA was dispensed in a volume of 300 μL/well. The plate was allowed to stand still at room temperature for 60 minutes to block the plate. To the plate blocked, the sample (mutant) adjusted in concentration to 1000 ng/mL, 111.1 ng/mL or 12.3 ng/mL was added in a volume of 50 μL/well and allowed to react at room temperature for 60 minutes. After washing with TBS-T, HRP-conjugated anti-human Kappa chain antibody (Bethyl) diluted with 1% BSA-containing TBS-T to 1/50,000 fold was dispensed in a volume of 50 μL/well and allowed to react at room temperature for 60 minutes. After washing, a TMB (3,3′,5,5′-tetramethylbenzidine) coloring reagent was allowed to react for 15 minutes. The reaction was terminated with 2N H₂SO₄ (30 μL/well). Absorbance at 450 nm was measured.

[2] = molecular target: T1, AMU1114 (Homo sapiens (Human), UniProt P0DOX7 1-214); assay: assay not named in the sentence (ELISA of FIG. 5 presumably)
T1 construct: Complex of a fusion heavy chain (Fab region linked to a prourokinase mutant) and an antibody light chain; F396 of the heavy chain corresponds to F157 of urokinase
T1 sequence (P0DOX7 other isoform, or with tags, fused parts or gaps limits assumed, chain 2 of 2, other chains not shown): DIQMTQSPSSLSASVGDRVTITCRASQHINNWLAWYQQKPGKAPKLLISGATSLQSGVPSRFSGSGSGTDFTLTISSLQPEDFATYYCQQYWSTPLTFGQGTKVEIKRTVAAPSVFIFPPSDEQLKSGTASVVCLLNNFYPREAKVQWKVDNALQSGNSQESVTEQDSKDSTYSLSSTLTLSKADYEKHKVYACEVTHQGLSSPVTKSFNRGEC
Method: as §1

Chain of AMU1114 (Δ22-28, F157E) mutant (P0DOX7 other isoform, or with tags, fused parts or gaps F157E F157E limits assumed, chain 2 of 2, other chains not shown): as the sequence (P0DOX7 other isoform, or with tags, fused parts or gaps limits assumed, chain 2 of 2, other chains not shown) above

- binding result [1]: no binding
- binding result [2]: no binding
B1: mouse urokinase receptor (receptor)
chain: LQCMQCESNQSCLVEECALGQDLCRTTVLREWQDDRELEVVTRGCAHSEKTNRTMSYRMGSMIISLTETVCATNLCNRPRPGARGRAFPQGRYLECASCTSLDQSCERGREQSLQCRYPTEHCIEVVTLQSTERSLKDEDYTRGCGSLPGCPGTAGFHSNQTFHFLKCCNYTHCNGGPVLDLQSFPPNGFQCYSCEGNNTLGCSSEEASLINCRGPMNQCLVATGLDVLGNRSYTVRGCATASWCQGSHVADSFPTHLNVSVSCCHGSGCNSPTGHHHHHH
notes: Immobilized on the plate at 1 µg/mL
